{
  "source": "paper PMC5261137",
  "about": "(Proteins, 2016)",
  "biological_target": "T1, SipD^C244S (residues 39-343 C244S) (Salmonella, UniProt Q56026 39-343, C244S)",
  "T1 sequence": "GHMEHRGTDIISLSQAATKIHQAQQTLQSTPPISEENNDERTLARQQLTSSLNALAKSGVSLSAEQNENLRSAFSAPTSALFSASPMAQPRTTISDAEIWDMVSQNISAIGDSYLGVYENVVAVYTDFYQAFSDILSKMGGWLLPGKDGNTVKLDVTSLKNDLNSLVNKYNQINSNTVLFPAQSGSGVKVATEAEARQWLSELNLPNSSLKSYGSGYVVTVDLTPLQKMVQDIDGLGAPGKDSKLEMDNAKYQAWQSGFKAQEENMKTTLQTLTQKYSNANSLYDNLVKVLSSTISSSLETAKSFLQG",
  "test": "NMR titration",
  "data": [
    {"binder": "SipB^11-232 (domain or fragment) SGYTQNPRLAEAAFEGVRKNTDFLKAADKAFKDVVATKAGDLKAGTKSGESAINTVGLKPPTDAAREKLSSEGQLTLLLGKLMTLLGDVSLSQLESRLAVWQAMIESQKEMGIQVSKEFQTALGEAQEATDLYEASIKKTDTAKSVYDAATKKLTQAQNKLQSLDPADPGYAQAEAAVEQAGKEATEAKEALDKATDATVKAGTDAKAKAEKADNILTKFQG", "values": [
      {"measurement": "binding result", "value": "binds"}
    ]}
  ]
}
